Molecular target: recombinant His6-tagged Drosophila PP1α87B (pET28a) (Drosophila) (UniProt P12982)
Sequence of UniProt P12982 (P12982 whole entry): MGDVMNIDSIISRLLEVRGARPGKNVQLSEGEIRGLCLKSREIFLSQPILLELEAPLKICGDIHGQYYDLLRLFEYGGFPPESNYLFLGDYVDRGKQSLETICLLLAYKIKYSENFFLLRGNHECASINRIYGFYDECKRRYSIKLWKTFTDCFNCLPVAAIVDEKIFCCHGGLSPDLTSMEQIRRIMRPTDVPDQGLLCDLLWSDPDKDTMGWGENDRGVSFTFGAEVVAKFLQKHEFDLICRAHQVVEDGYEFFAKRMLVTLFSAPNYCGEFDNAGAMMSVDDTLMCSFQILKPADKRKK

- inhibition of the myelin basic protein phosphatase activity of recombinant PP1α87B by Uri; IC50 of Uri relative to its IC50 against PP1β9C: 25 fold
B1: recombinant His6-tagged Drosophila Uri (pET-28m), bacterially expressed (natural protein)
chain: MDRREDALLQALQTNASETERWEAFKRDNESTIRNLDKFAKNLSVEVMVPIGRKALMPGELIHTNELLVGHYEGYFSACSSHKAKEICQYRLKLAEEQLKKLAVENDLWQKKLHTPFAEGAVPSGDQVEIVEDFNEESHNKWLAEHRKRMRQQKQKERLEREAEPVKKDNEVLRKLEEREMMEELGLDPDNIDEDQLHDMLNQEPLKSTNESSPKSLTQEEEDELWKKLEAEEQNEADELSSEAEESLKTTDNLVRQLMSGETETPSSKKRTAGTNRNVEIQDPISEDDGDDDDEGDQEEEVRTIREQMSLLPNEDREPFLRAQLHVLKAKMRKIQKVNFISDELIHLMNVVVMLEDDLQDLVFEQELEASEEEEEVVENNHLPDEPSKELSTVSESSTNKRRISFALDDEKLEFRREETVAEMLPNAKKNSRDIIKLNAPLKPAGDPQPASIKTKRQTTQDILQKVERNIEFVKENQSVQDFDLLNRIMEESTGLINTLHISFTHSGAIPSPSSDQSDGIPGKPSDFYVRYEKDRARPNDSFPIYVNGFEGEEHVKVPIMSEAARGSAYEDPRSQFSKPNSSEICFTHSGSITPTSNDQSDDIPGNPFDFYEKYEKDRAKFSKSNSSEGDATDPESATKSILRNKSAVDLEPHNVNQQPKKGRKVRNQKKKERTLDDDLRDMSAYQKVMHDLVEKEPTAPEPLPPGKFIDSHAPKKRVSRFKEQRALNKT

Source: article PMC2346476
